Source: patent US20210380714A1

Legend:
[1] = molecular target: recombinant human soluble MSLN (rHuMSLN sol.) (human) (UniProt Q13421); assay: Biacore, soluble human MSLN
[2] = molecular target: native human MSLN expressed on the cell surface (N87 / NCI-N87 tumor cells) (human) (UniProt Q13421); assay: KinExA, native hu MSLN on cells
[3] = molecular target: native human MSLN expressed on the cell surface (N87 / NCI-N87 tumor cells) (human) (UniProt Q13421); assay: KinExA equilibrium binding to N87 tumor cells expressing native human MSLN
[4] = molecular target: native human MSLN expressed on the cell surface (N87 / NCI-N87 tumor cells) (human) (UniProt Q13421); assay: KinExA on N87 cells compared with Biacore on rHuMSLN sol.
[5] = molecular target: recombinant human soluble MSLN (rHuMSLN sol.) (human) (UniProt Q13421); assay: Biacore; 237 captured on the sensor chip, rHuMSLN sol. in solution

Sequence of recombinant human soluble MSLN (rHuMSLN sol.) (human) (Q13421 296-606 limits assumed): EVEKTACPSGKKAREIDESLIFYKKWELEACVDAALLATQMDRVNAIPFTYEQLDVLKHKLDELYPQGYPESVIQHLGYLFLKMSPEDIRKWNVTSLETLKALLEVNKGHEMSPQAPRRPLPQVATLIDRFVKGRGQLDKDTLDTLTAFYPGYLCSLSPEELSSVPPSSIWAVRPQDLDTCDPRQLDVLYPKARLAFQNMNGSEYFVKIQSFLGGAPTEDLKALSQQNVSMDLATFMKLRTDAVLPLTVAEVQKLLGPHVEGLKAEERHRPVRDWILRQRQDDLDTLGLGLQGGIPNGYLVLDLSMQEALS
Sequence of native human MSLN expressed on the cell surface (N87 / NCI-N87 tumor cells) (human) (Q13421 296-606 limits assumed): as above

Row | Kd [1] [nM] | Kd [2] [nM] | Kd [3] [nM] | fold better binding than to soluble MSLN [4] [fold] | Kd [5] [nM] | Binder
1 | 0.965 | – | – | – | – | 1.33.1 (antibody, V domains shown) VH: QVQLQESGPGLVKPSQTLSLTCTVSGGSISGDGHFWSWIRQHPGKGLEWIGYIYYSGSTYYNPSLKSRVTISVDTSKNQFSLKLSSVTAADTAVYYCARLRGGYKFDYWGQGTLVTVSS VL: DIVMTQTPLSLSVAPGQPASISCQSSLSLQHSNGKTYLYWYLQKPGQPPQLLIYEVSNRFSGVPDRFSGSGSGTDFTLKISRVEAEDVGIYYCMQSKQLPCSFGQGTKLEIK
2 | 2.4 | 0.0122 | – | – | – | 158.3 (antibody, V domains shown) VH: QVQLQESGPGLVKPSETLSLTCTVSGGSIISHYWSWIRQPPGKGLEWIGYIYYSGSTNYNPSLKSRVTISVDTSKNQFSLKLTSVTAADTAVYYCARDGWSAFDYWGQGTLVTVSS VL: DIQMTQSPSSLSASVGDRVTITCRASQGIRNALGWYQQKPGKAPKRLIYAASSLQSGVPSRFSGSGSGTEFTLTISSLQPEDFATYYCLQHNSYPRTFGQGTKVEIRR
3 | 17.4 | 0.03 | – | – | – | 151 (antibody, V domains shown) VH: QVQLQESGPGLVKPSETLSLTCTVSGGSISSYYWSWIRQPPGKGLEWIGYIYYSGSTNYNPSLKSRVTISVDTSKNQFSLKLSSVTAADTAVYYCARVDYKAFDIWGQGTMVTVSS VL: DIQMTQSPSSLSASVGDRVTITCRASQGIRNDLHWYQQKPGKAPKRLIYAASSLQSGVPSRFSGSGSGTEFTLTISSLQPEDFATYYCLQHYSYPWTFGQGTKVEIK
4 | – | – | 0.0035 | 30 | 0.097 | Ab237 (Hu-anti-huMesothelin-2.37-IgG1) (antibody, V domains shown) VH: QVQLQESGPGLVKPSQTLSLTCTVSGGSINNNNYYWTWIRQHPGKGLEWIGYIYYSGSTFYNPSLKSRVTISVDTSKTQFSLKLSSVTAADTAVYYCAREDTMTGLDVWGQGTTVTVSS VL: DIQMTQSPSSLSASVGDRVTITCRASQSINNYLNWYQQKPGKAPTLLIYAASSLQSGVPSRFSGSRSGTDFTLTISSLQPEDFAAYFCQQTYSNPTFGQGTKVEVK
